Laboratory results reported in the supplement of paper PMC7877785.
± gives the uncertainty stated by the source.

Test: self-splicing fitness, log relative to wild type (ln ratio); higher = more splicing; Tetrahymena group I intron in knt gene, E. coli kanamycin selection, DiMSum; sequences stand for … in CUCUCU…GGAGGGAAAAGUUAUCAGGCAUGCACCUGGUAGCUAGUCUUUAAACCAAUAGAUUGCAUCGGUUUAAAAGGCAAGACCGUCAAAUUGCGGGAAAGGGGUCAACAGCCGUUCAGUACCAAGUCUCAGGGGAAACUUUGAGAUGGCCUUGCAAAGGGUAUGGUAAUAAGCUGACGGACAUGGUCCUAACCACGCAGCCAAGUCCUAAGUCAACAGAUCUUCUGUUGAUAUGGAUGCAGUUCACAGACUAAAUGUCGGUCGGGGAAGAUGUAUUCUUCUCAUAAGAUAUAGUCGGACCUCUCCUUAAUGGGAGCUAGCGGAUGAAGUGAUGCAACACUGGAGCCGCUGGGAACUAAUUUGUAUGCGAAAGUAUAUUGAUUAGUUUUGGAGUACUCGUGGUCG
In short: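 The eight P1ex-region nucleotides of an intron in the knt kanamycin-resistance gene on pET-22b(+) were all randomised and the library put into E. coli BL21(DE3). Six replicate transformations were grown overnight at 37°C or 30°C on LB agar with or without 25 μg/mL kanamycin, together with 100 μg/mL carbenicillin, 50 μM IPTG and 0.2% rhamnose. Colonies were pooled and amplicon-sequenced on an Illumina HiSeq 2500. Fitness from DiMSum is the error-weighted combination of wild-type-normalised replicate fold changes, kanamycin over none.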

| Sequence | self-splicing fitness (ln) (30 °C) | self-splicing fitness (ln) (37 °C) |
| --- | --- | --- |
| CAAAAGCAAUAUUACGCGCA | -1.05 ± 0.1 | -0.548 ± 0.1 |
| CAAAAGCAAUAUUACGCUAC | -3.82 ± 0.26 | -2.59 ± 0.25 |
| CAAAAGCAAUAUUACGCUCG | -1.25 ± 0.12 | -0.455 ± 0.12 |
| CAAAAGCAAUAUUACGGAAU | -3.21 ± 0.21 | -2.56 ± 0.17 |
| CAAAAGCAAUAUUACGGAUC | -3.73 ± 0.22 | -1.98 ± 0.16 |
| CAAAAGCAAUAUUACGGGGG | -3.13 ± 0.18 | -2.38 ± 0.15 |
| CAAAAGCAAUAUUACGGGUC | -3.11 ± 0.094 | -2.51 ± 0.12 |
| CAAAAGCAAUAUUACGGUUC | -3.56 ± 0.22 | -1.83 ± 0.18 |
| CAAAAGCAAUAUUACGUCGC | -4.14 ± 0.28 | -2.35 ± 0.25 |
| CAAAAGCAAUAUUACGUCGG | -0.932 ± 0.073 | -0.25 ± 0.1 |
| CAAAAGCAAUAUUACGUCUU | -2.5 ± 0.082 | -1.24 ± 0.08 |
| CAAAAGCAAUAUUACGUGAC | -5 ± 0.36 | -2.47 ± 0.18 |
| CAACAGCAAUAUUACGACAU | -2.026 ± 0.012 | -1.04 ± 0.032 |
| CAACAGCAAUAUUACGAGAC | -2.57 ± 0.11 | -2.22 ± 0.14 |
| CAACAGCAAUAUUACGAGGC | -3.79 ± 0.36 | -1.77 ± 0.18 |
| CAACAGCAAUAUUACGAGUG | -1.59 ± 0.051 | -0.292 ± 0.071 |
| CAACAGCAAUAUUACGAGUU | -2.6 ± 0.096 | -2.09 ± 0.13 |
| CAACAGCAAUAUUACGAUUA | -0.522 ± 0.082 | -0.185 ± 0.082 |
| CAACAGCAAUAUUACGCACU | -2.34 ± 0.14 | -0.357 ± 0.12 |
| CAACAGCAAUAUUACGCAUA | -2.7 ± 0.12 | -1.4 ± 0.098 |
| CAACAGCAAUAUUACGCAUG | -2.41 ± 0.11 | -1.27 ± 0.14 |
| CAACAGCAAUAUUACGCGGG | -2.63 ± 0.14 | -2.12 ± 0.14 |
| CAACAGCAAUAUUACGGCGA | -1.5 ± 0.094 | -0.709 ± 0.087 |
| CAACAGCAAUAUUACGGGCG | -0.0253 ± 0.049 | 0.154 ± 0.062 |
| CAACAGCAAUAUUACGGUGG | -2.15 ± 0.083 | -0.724 ± 0.082 |
| CAACAGCAAUAUUACGUCGG | -0.576 ± 0.052 | -0.369 ± 0.065 |
| CAACAGCAAUAUUACGUUCA | -1.06 ± 0.051 | 0.193 ± 0.061 |
| CAACAGCAAUAUUACGUUCC | -2.46 ± 0.096 | -2.02 ± 0.12 |
| CAACAGCAAUAUUACGUUCG | -0.959 ± 0.051 | -0.171 ± 0.065 |
